Experimental data as given in IntAct's records for PubMed 11438675.

B1: Nibrin (Homo sapiens), O60934 (parent)
chain: MWKLLPAAGPAGGEPYRLLTGVEYVVGRKNCAILIENDQSISRNHAVLTANFSVTNLSQTDEIPVLTLKDNSKYGTFVNEEKMQNGFSRTLKSGDGITFGVFGSKFRIEYEPLVACSSCLDVSGKTALNQAILQLGGFTVNNWTEECTHLVMVSVKVTIKTICALICGRPIVKPEYFTEFLKAVESKKQPPQIESFYPPLDEPSIGSKNVDLSGRQERKQIFKGKTFIFLNAKQHKKLSSAVVFGGGEARLITEENEEEHNFFLAPGTCVVDTGITNSQTLIPDCQKKWIQSIMDMLQRQGLRPIPEAEIGLAVIFMTTKNYCDPQGHPSTGLKTTTPGPSLSQGVSVDEKLMPSAPVNTTTYVADTESEQADTWDLSERPKEIKVSKMEQKFRMLSQDAPTVKESCKTSSNNNSMVSNTLAKMRIPNYQLSPTKLPSINKSKDRASQQQQTNSIRNYFQPSTKKRERDEENQEMSSCKSARIETSCSLLEQTQPATPSLWKNKEQHLSENEPVDTNSDNNLFTDTDLKSIVKNSASKSHAAEKLRSNKKREMDDVAIEDEVLEQLFKDTKPELEIDVKVQKQEEDVNVRKRPRMDIETNDTFSDEAVPESSKISQENEIGKKRELKEDSLWSAKEISNNDKLQDDSEMLPKKLLLTEFRSLVIKNSTSRNPSGINDDYGQLKNFKKFKKVTYPGAGKLPHIIGGSDLIAHHARKNTELEEWLRQEMEVQNQHAKEESLADDLFRYNPYLKRRR

Variants of: B1
Conditions: with chk2_human CHEK2, O96017
Sequence of chk2_human CHEK2, O96017 (O96017 whole entry): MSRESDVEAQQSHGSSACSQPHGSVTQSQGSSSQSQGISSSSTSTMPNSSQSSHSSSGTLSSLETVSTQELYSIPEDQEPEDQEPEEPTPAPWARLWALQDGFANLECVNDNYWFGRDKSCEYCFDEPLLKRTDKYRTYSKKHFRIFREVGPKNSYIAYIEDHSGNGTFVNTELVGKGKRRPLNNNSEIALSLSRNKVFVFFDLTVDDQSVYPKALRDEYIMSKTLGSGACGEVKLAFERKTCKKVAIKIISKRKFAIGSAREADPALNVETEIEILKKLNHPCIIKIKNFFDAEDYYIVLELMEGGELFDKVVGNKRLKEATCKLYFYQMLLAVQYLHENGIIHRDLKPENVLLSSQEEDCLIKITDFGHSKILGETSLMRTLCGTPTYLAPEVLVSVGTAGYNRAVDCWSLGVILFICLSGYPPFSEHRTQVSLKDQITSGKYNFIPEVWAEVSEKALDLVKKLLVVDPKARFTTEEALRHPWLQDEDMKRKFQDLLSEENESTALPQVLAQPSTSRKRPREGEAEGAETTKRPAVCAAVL

effect of a mutation on the interaction | Variant
decreasing interaction | S343A
